From US20210079109A1 (Regeneron, published 2021)

Legend:
[1] = target: T1, recombinant human CD63 extracellular loop 2 expressed with a C-terminal human Fc tag (human); test: SPR Biacore, mAb captured, 37C
T1 construct: also called hCD63 EC loop 2-hFc; human CD63 EC loop 2-Fc
Procedure, shortened: (§1)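 Anti-CD63 mAbs captured on anti-mouse Fc or anti-human Fab surfaces; CD63 EC2 reagents flowed in HBS-ET, pH 7.4, at 25° C or 37° C. ka and kd from 1:1 binding model with mass transport limitation; KD and t½ calculated from kinetic rates.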

[2] = target: T2, recombinant human CD63 extracellular loop 2 expressed with a C-terminal Myc-Myc-hexahistidine (human); test: SPR Biacore, mAb captured, 37C
T2 construct: also called hCD63 EC loop 2-MMH; human CD63 EC loop 2-MMH
Procedure, shortened: as §1

human CD63 [3] = target: T3, human CD63 (human, UniProt P08962 2-238); test: imaging of stained T47D cells, 10 ug/mL antibody
T3 construct: stably transfected in NIH3T3/hCD63; The cell line is named under assay; also called hCD63
T3 sequence: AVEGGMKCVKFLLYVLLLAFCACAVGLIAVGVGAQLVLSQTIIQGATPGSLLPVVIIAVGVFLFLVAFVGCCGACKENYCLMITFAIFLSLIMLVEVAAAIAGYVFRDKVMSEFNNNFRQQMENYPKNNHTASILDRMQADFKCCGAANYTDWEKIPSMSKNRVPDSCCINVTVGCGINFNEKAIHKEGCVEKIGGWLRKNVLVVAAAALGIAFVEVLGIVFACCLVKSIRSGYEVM
Experimental: To stain, quadruplicate plates of cells were incubated with 10 μg/mL of anti-CD63 antibodies that was diluted in 2% FBS in PBS, without Calcium and Magnesium (Irving, Cat #9240) (staining buffer) for 30 minutes at 4° C. […] Two plates were immediately fixed and stained with 4% paraformaldehyde (PFA; ThermoFisher, Cat #28908)+5 uM DRAQ5 (ThermoFisher, Cat #62251) in PBS for 20 minutes (non-internalization plates). The remaining two plates were incubated with growth media at 37° C. for 2 hours followed by fixation and staining for 20 minutes using a solution of 4% PFA+5 μM DRAQ5 diluted in PBS (internalization plates). After fixation, all plates were washed once with PBS. One non-internalization plate and one internalization plate were incubated with an anti-Alexa Fluor 488 antibody (Regeneron) at 50 μg/mL in PBS overnight at 4° C. to quench surface Alexa Fluor 488 fluorescence. The remaining plates were incubated with PBS only. Confocal images were acquired on the Opera Phenix (Perkin Elmer) at 40× magnification. Harmony analysis software (Perkin Elmer) was utilized to identify DRAQ5-labeled cells and the total Alexa-Fluor 488 relative fluorescent units (RFU) per cell was determined. The total binding at 4° C. (RFU values of 4° C. unquenched wells), total binding at 37° C. (RFU values of 37° C. unquenched wells), the total internalized RFU, and the % Internalization were determined for each antibody as shown in Table 1. For all calculations, background fluorescence from 2nd Ab only control wells were subtracted from every well. Total internalized RFU was calculated as follows: Total RFU of 37° C. unquenched samples−Surface RFU at 37° C. Surface RFU is defined as unquenched RFU at 37° C.−quenched RFU at 37° C.)/QE. QE (quenching efficiency) is defined as: 1−(Total RFU of 4° C. quenched sample/Total RFU of 4° C. unquenched sample). The % Internalization was determined from the following formula: (Total internalized RFU at 37° C./Total RFU at 37° C.)*100.

human CD63 [4] = target: T3, human CD63; test: cell-based or functional assay
[5] = target: T1, recombinant human CD63 extracellular …; test: SPR Biacore, mAb captured, 25C
Procedure, shortened: as §1

[6] = target: T2, recombinant human CD63 extracellular …; test: SPR Biacore, mAb captured, 25C
Procedure, shortened: as §1

T1 sequence (chain, as listed by the source limits assumed): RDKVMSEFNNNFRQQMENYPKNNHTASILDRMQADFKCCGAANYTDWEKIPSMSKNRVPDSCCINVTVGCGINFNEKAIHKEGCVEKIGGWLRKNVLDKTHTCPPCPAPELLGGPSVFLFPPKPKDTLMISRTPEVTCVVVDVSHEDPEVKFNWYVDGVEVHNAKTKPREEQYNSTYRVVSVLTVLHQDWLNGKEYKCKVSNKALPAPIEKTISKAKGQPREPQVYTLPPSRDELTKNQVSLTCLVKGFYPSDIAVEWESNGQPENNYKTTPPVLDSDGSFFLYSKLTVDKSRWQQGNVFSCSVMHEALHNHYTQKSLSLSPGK
T2 sequence (chain, as listed by the source limits assumed): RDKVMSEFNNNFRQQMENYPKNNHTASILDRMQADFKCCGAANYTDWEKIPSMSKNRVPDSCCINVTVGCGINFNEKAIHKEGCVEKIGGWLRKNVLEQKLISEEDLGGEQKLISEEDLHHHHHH

B1: H2M12450N (antibody, V domains shown)
VH: QVQLQESGPKVVKPSETLSLTCTVSGGSISSYYWNWIRQSPGKGLEWIGYTKRGYTDYNPSLRSRVTISEDTSKNQFSLRISSVTAADTAVYYCAQMGWGSHAFDMWGQGTMVAVSS
VL: EIVLTQSPGTLSLSPGERATLSCRASQSVNSRYLAWYQQKPGQAPRLLIYGASSRATGIPDRCSGSGSGTDFTLTISRLEPEDFAVYYCQQYGSSPWTFGQGTKVEIK
notes: also called H2aM12450N; mAb12450
Question: Which results are given for B1?
Answer: 100 nM Ag Bound (RU) [1]: 138 RU; Kd [1]: 0.119 nM; koff [1]: 4.89e-05 s⁻¹; kon [1]: 411000 M⁻¹ s⁻¹; t1/2 [1]: 236 min; 100 nM Ag Bound (RU) [2]: 58 RU; Kd [2]: 1.15 nM; koff [2]: 0.000201 s⁻¹; kon [2]: 175000 M⁻¹ s⁻¹; t1/2 [2]: 57 min; Total RFU at 4C (human CD63 [3]): 2.36e+06 RFU; Total RFU at 37C (2 h) (human CD63 [3]): 2.94e+06 RFU; % Internalization, T47D cells (human CD63 [4]): 60.9%; Total Internalized RFU, T47D cells (human CD63 [4]): 1.79e+06 RFU; 100 nM Ag Bound (RU) [5]: 134 RU; Kd [5]: 0.15 nM; koff [5]: 4.66e-05 s⁻¹; kon [5]: 320000 M⁻¹ s⁻¹; t1/2 [5]: 248 min; 100 nM Ag Bound (RU) [6]: 65 RU; Kd [6]: 1.23 nM; koff [6]: 0.000279 s⁻¹; kon [6]: 227000 M⁻¹ s⁻¹; t1/2 [6]: 41 min

B2: H1M12451N (antibody, V domains shown)
VH: QVQLQESGPGLMKPSETLSLTCTVSGGSFSSYYWNWIRQSPGKGLEWIGYIRYSGDTNYKPSLKSRFTISIDTSKNLFSLRLKSVTAADTAVYYCARMGLGSDAFDIWGQGTMVTVSS
VL: EIVLTQSPGTLSLSPGERATLSCRASQSVNNNYLAWYQQKPGQAPRLLIYGVFNRATNIPDRFSGSGSGTDFTLTISRLEPEDFAVYYCQQYGSSPWTFGQGTKVEIK
Question: B2 was tested. Which “100 nM Ag Bound (RU)” value [1] did it give?
Answer: 118 RU

Question: What about the Kd [1] of the same binder?
Answer: 0.509 nM

Question: What about the koff [1] of the same binder?
Answer: 0.000331 s⁻¹

Question: And the kon [1]?
Answer: 651000 M⁻¹ s⁻¹

Question: And the t1/2 [1]?
Answer: 35 min

Question: What about the “100 nM Ag Bound (RU)” value [2] of the same binder?
Answer: 44 RU

Question: And the Kd [2]?
Answer: 21.4 nM

Question: And the koff [2]?
Answer: 0.0019 s⁻¹

Question: And the kon [2]?
Answer: 88900 M⁻¹ s⁻¹

Question: What about the t1/2 [2] of the same binder?
Answer: 6 min

Question: What about the “Total RFU at 4C” value (human CD63 [3]) of the same binder?
Answer: 1.9e+06 RFU

Question: What about the “Total RFU at 37C (2 h)” value (human CD63 [3]) of the same binder?
Answer: 2.32e+06 RFU

Question: And the “% Internalization, T47D cells” value (human CD63 [4])?
Answer: 73.7%

Question: What about the “Total Internalized RFU, T47D cells” value (human CD63 [4]) of the same binder?
Answer: 1.71e+06 RFU

Question: And the “100 nM Ag Bound (RU)” value [5]?
Answer: 107 RU

Question: And the Kd [5]?
Answer: 0.704 nM

Question: What about the koff [5] of the same binder?
Answer: 8.4e-05 s⁻¹

Question: What about the kon [5] of the same binder?
Answer: 119000 M⁻¹ s⁻¹

Question: What about the t1/2 [5] of the same binder?
Answer: 138 min

Question: And the “100 nM Ag Bound (RU)” value [6]?
Answer: 52 RU

Question: And the Kd [6]?
Answer: 5 nM

Question: And the koff [6]?
Answer: 0.00043 s⁻¹

Question: And the kon [6]?
Answer: 85900 M⁻¹ s⁻¹

Question: What about the t1/2 [6] of the same binder?
Answer: 27 min

B3: H2M12395N (antibody, V domains shown)
VH: QVQLQESGPRLVKPSETLSLTCIVSGGSISNFYWNWIRQSPGKGLEWIGYFFYTGTIDYNPSLKSRVTISLDTSKNQFSLNLRLLTAADAAVYYCARMGLGANAFDIWGHGTMVTVSS
VL: EIVLTQSPGTLSLSPGERATLSCRASQHVSSNYLAWYQQKPGQAPRLLIYGGSSRATGIPDRFSGSGSGTDFTLTISRLEPADFAVFYCQQYGNSPWTFGQGTKVEMK
notes: also called H2aM12395N
Question: How did the “100 nM Ag Bound (RU)” value [1] turn out when B3 was run?
Answer: 123 RU

Question: And the Kd [1]?
Answer: 3.38 nM

Question: What about the koff [1] of the same binder?
Answer: 0.00179 s⁻¹

Question: And the kon [1]?
Answer: 529000 M⁻¹ s⁻¹

Question: What about the t1/2 [1] of the same binder?
Answer: 6 min

Question: What about the “100 nM Ag Bound (RU)” value [2] of the same binder?
Answer: 31 RU

Question: What about the Kd [2] of the same binder?
Answer: 56.4 nM

Question: And the koff [2]?
Answer: 0.00932 s⁻¹

Question: What about the kon [2] of the same binder?
Answer: 165000 M⁻¹ s⁻¹

Question: What about the t1/2 [2] of the same binder?
Answer: 1 min

Question: And the “Total RFU at 4C” value (human CD63 [3])?
Answer: 1.5e+06 RFU

Question: What about the “Total RFU at 37C (2 h)” value (human CD63 [3]) of the same binder?
Answer: 1.69e+06 RFU

Question: What about the “% Internalization, T47D cells” value (human CD63 [4]) of the same binder?
Answer: 73.2%

Question: What about the “Total Internalized RFU, T47D cells” value (human CD63 [4]) of the same binder?
Answer: 1.24e+06 RFU

Question: And the “100 nM Ag Bound (RU)” value [5]?
Answer: 117 RU

Question: And the Kd [5]?
Answer: 0.753 nM

Question: What about the koff [5] of the same binder?
Answer: 0.00051 s⁻¹

Question: What about the kon [5] of the same binder?
Answer: 677000 M⁻¹ s⁻¹

Question: And the t1/2 [5]?
Answer: 23 min

Question: What about the “100 nM Ag Bound (RU)” value [6] of the same binder?
Answer: 42 RU

Question: And the Kd [6]?
Answer: 11 nM

Question: And the koff [6]?
Answer: 0.00182 s⁻¹

Question: And the kon [6]?
Answer: 166000 M⁻¹ s⁻¹

Question: And the t1/2 [6]?
Answer: 6 min
